For test [1], the target named is AKAP79^FAAF, mRFP-tagged (human) (human) (UniProt P24588). The test can be described thus: FRAP.
For test [2], the target named is AKAP79, mRFP-tagged, full length (human) (human) (UniProt P24588). Nature of the test: FRAP.
In test [3] the target is AKAP150, mRFP-tagged (rat) (rat) (UniProt P24587). Nature of the test: FRAP.
Test [4] deals with AKAP79^FAAF, GFP-tagged, full length (human) (human) (UniProt P24588). The test can be described thus: co-IP.
Test [5] deals with AKAP79^AF, GFP-tagged, full length (human) (human) (UniProt P24588). The test can be described thus: co-IP.
The target of test [6] is AKAP79^FA, GFP-tagged, full length (human) (human) (UniProt P24588). Nature of the test: co-IP.

UniProt P24587, sequence (P24587 whole entry): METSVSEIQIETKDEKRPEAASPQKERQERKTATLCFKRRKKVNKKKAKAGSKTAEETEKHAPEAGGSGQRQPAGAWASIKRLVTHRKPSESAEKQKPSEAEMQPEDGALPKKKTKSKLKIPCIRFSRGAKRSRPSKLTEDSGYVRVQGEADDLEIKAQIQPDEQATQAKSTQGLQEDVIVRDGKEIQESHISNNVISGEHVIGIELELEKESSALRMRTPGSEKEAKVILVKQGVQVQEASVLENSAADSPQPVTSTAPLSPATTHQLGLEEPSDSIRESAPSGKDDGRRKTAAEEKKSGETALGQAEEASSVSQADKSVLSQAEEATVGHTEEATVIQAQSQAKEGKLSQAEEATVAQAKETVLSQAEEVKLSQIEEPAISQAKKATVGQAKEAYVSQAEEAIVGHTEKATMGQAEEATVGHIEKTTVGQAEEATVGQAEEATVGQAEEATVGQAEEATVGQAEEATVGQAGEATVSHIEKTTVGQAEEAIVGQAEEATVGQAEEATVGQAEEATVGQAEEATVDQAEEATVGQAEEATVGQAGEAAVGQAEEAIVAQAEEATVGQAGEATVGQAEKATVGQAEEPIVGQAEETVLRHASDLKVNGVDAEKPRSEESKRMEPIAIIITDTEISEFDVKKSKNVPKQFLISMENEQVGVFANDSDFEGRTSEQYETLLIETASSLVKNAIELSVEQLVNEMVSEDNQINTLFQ

Regarding “PKA type II regulatory subunit alpha, iRFP-tagged (RII-iRFP) (from UniProt P13861 1-404) (natural protein)”, the FRAP recovery half-time is 11.4 s in test [1], 14.4 s in test [2] and 12.3 s in test [3]. In addition, the FRAP recovery rate constant is 0.062 s⁻¹ in test [1], 0.049 s⁻¹ in test [2] and 0.057 s⁻¹ in test [3].

In test [4], “PKA type I regulatory subunit alpha (RIα), endogenous (from UniProt P10644 1-381) (natural protein)” displayed a fold RI band intensity over controls of 3.55 fold.

In test [1], “PKA type I regulatory subunit alpha, iRFP-tagged (RI-iRFP) (from UniProt P10644 1-381) (natural protein)” yielded an FRAP recovery half-time of 20.5 s and an FRAP recovery rate constant of 0.034 s⁻¹. For the same substance, in test [2], the FRAP recovery half-time turned out to be 8.74 s and the FRAP recovery rate constant stood at 0.079 s⁻¹.

Turning to “PKA type II regulatory subunit alpha (RIIα), endogenous (from UniProt P13861 1-404) (natural protein)”, the percent decrease of RII binding against WT AKAP79 in test [4] amounted to 45%; in test [5], 22%; in test [6], 45%.

The values are drawn from paper PMC12083921.
